Measured values from paper PMC10715591, “EspB and HtpG interact with the type III-A CRISPR/Cas system of Mycobacterium tuberculosis” (Frontiers in Molecular Biosciences, 2023).

Target: T1, MtbHtpG (high-temperature protein G) (Mycobacterium tuberculosis H37Rv, UniProt P9WMJ7 1-647)
T1 construct: also called Chaperone htpG
T1 sequence: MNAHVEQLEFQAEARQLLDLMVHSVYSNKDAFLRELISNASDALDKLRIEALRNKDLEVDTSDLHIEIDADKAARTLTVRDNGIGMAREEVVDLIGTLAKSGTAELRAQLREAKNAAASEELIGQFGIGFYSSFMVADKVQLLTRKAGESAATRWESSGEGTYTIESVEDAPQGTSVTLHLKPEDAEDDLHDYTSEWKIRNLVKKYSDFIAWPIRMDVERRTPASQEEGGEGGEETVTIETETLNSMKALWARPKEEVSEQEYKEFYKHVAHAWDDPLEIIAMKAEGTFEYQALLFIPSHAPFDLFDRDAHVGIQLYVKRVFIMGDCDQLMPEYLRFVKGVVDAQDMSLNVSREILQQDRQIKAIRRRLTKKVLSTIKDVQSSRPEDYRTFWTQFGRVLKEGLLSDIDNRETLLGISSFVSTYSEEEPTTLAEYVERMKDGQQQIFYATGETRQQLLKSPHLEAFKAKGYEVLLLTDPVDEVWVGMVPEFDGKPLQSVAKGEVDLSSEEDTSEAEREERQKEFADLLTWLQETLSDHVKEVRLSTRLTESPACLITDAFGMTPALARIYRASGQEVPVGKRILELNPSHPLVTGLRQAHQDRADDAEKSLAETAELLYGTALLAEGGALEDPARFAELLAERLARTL
Test: SPR
Conditions: both partners purified

B1: MtbCsm3 (natural protein)
chain: MTTSYAKIEITGTLTVLTGLQIGAGDGFSAIGAVDKPVVRDPLSRLPMIPGTSLKGKVRTLLSRQYGADTETFYRKPNEDHAHIRRLFGDTEEYMTGRLVFRDTKLTNKDDLEARGAKTLTEVKFENAINRVTAKANLRQMERVIPGSEFAFSLVYEVSFGTPGEEQKASLPSSDEIIEDFNAIARGLKLLELDYLGGSGTRGYGQVKFSNLKARAAVGALDGSLLEKLNHELAAV
  Kd: 59.4 nM
  koff: 0.000914 s⁻¹
  kon: 15400 M⁻¹ s⁻¹
